This data set has as its system AIM2 (recombinant AIM2FL). Briefly: EMSA. Particulars: 3' biotin; EMSA: 0.1 uM biotinylated 149 bp dsDNA, protein up to 2.5 ug (twofold dilutions), 4 C, 30 min, 5% native PAGE in 45 mM Tris-borate/1 mM EDTA; pull-down: 1 ug …. Background: A gel shift assay detects complexes by their altered migration in electrophoresis.

1 substance from article PMC10617567 can be followed below.

For the substance 149 bp HBV dsDNA, the Kd stood at 1.38.
